In article PMC8630071, “The NUCKS1-SKP2-p21/p27 axis controls S phase entry”:
Changes are numbered by the printed parent chain.

T1: NUCKS1, dephosphorylated (UniProt Q9H1E3 1-243)
T1 sequence: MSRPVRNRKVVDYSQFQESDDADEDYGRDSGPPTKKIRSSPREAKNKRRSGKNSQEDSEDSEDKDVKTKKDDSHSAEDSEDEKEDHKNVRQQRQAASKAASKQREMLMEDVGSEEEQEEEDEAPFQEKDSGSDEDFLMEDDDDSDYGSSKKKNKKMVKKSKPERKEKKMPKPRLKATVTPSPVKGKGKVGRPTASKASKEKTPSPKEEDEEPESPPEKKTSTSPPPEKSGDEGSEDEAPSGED

B1: SKP2 promoter WT probe (dsDNA)
DNA 1: GCCGACCAGTCCCGCTCCCGCGGGGGGTTGTGGGTATCTCGAAGGCGGGTAAAGCTGCA
DNA 2: TGCAGCTTTACCCGCCTTCGAGATACCCACAACCCCCCGCGGGAGCGGGACTGGTCGGC
B2: SKP2 promoter mutant probe (no GC-box), unlabelled competitor (dsDNA)
DNA 1: B1 DNA 1 with G44A, G45A, C46A, G47A, G48A, G49A
DNA 2: B1 DNA 2 with C11T, C12T, C13T, G14T, C15T, C16T

Tests used:
NUCKS1, dephosphorylated [1] = target: T1, NUCKS1, dephosphorylated; assay: EMSA; lambda phosphatase treated; 10.24-2500 nM protein, 25 nM probe; text: almost 10-fold; 20 mM Tris-HCl pH 7.5, 100 mM KCl, 0.2% NP-40, 20% glycerol, 2 mM DTT, 50 ng (pure protein) or 1 ug (extract) salmon sperm DNA, 25 nM probe, 15 min at 37 C; native 6% PAGE; conditions: protein: recombinant; tags: His6; label: IRDye-800; blunt
NUCKS1, dephosphorylated [2] = target: T1, NUCKS1, dephosphorylated; assay: competition EMSA; 100x unlabelled competitor against labelled WT probe; not outcompeted; 20 mM Tris-HCl pH 7.5, 100 mM KCl, 0.2% NP-40, 20% glycerol, 2 mM DTT, 50 ng (pure protein) or 1 ug (extract) salmon sperm DNA, 25 nM probe, 15 min at 37 C; native 6% PAGE; conditions: protein: recombinant; tags: His6; blunt

Binder	binding signal (NUCKS1, dephosphorylated [1])	binding result (NUCKS1, dephosphorylated [2])
B1	~10 fold higher affinity than phosphorylated NUCKS1	–
B2	–	no binding
